Some targets named below: DLG1_2, Q12959; HTRA1, Q92743; LIMK2, P53671; MAGI2_2, Q86UL8; MAGI2_3, Q86UL8; NHERF4_4, Q86UT5; PDZRN4_1, Q6ZMN7.
What all share (assay): holdup assay
Parameters in all cases: key: below the threshold = too weak to quantify, mostly under pKd 3.1 to 4

Another assay has as its target T1, APBA1_1, Q02410.
T1 sequence (Q02410 651-752, limits assumed, looked up): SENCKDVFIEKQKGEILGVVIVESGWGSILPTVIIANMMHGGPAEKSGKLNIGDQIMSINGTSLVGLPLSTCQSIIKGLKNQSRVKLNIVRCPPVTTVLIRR

The next assay has as its target T2, CARD11, Q9BXL7.
T2 sequence (Q9BXL7 662-765, limits assumed, looked up): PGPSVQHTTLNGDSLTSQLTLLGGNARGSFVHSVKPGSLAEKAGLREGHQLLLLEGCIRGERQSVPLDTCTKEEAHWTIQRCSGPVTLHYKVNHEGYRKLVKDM

For the next assay, the target named is T3, DFNB31_1, Q9P202.
T3 sequence (Q9P202 135-233, limits assumed, looked up): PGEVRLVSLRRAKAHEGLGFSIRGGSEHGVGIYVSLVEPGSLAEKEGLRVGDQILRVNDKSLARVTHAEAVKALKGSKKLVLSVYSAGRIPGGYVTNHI

For a further assay, the target named is T4, DFNB31_2, Q9P202.
T4 sequence (Q9P202 274-371, limits assumed, looked up): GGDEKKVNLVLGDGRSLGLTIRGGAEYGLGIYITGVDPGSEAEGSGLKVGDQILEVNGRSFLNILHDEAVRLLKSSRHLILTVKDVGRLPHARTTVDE

Another assay deals with T5, DFNB31_3, Q9P202.
T5 sequence (Q9P202 811-907, limits assumed, looked up): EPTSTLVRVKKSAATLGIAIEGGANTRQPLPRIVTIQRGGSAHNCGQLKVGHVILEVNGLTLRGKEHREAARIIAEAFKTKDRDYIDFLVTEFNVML

Another assay concerns the target T6, DVL3, Q92997.
T6 sequence (Q92997 244-331, limits assumed, looked up): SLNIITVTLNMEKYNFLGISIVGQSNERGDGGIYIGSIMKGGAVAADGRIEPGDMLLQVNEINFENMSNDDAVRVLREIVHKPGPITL

Another assay concerns the target T7, FRMPD1, Q5SYB0.
T7 sequence (Q5SYB0 52-145, limits assumed, looked up): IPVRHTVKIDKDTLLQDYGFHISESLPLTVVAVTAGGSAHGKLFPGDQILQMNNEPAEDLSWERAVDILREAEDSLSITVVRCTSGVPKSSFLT

A further assay has as its target T8, GRIP1_5, Q9Y3R0.
T8 sequence (Q9Y3R0 568-668, limits assumed, looked up): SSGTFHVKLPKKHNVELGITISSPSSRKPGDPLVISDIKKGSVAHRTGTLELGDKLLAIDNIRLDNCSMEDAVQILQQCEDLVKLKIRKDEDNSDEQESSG

Another assay addresses T9, HTRA4, P83105.
T9 sequence (P83105 378-476, limits assumed, looked up): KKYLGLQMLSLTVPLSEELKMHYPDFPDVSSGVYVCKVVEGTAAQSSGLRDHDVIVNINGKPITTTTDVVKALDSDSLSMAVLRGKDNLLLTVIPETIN

Another assay deals with T10, LIN7C, Q9NUP9.
T10 sequence (Q9NUP9 88-185, limits assumed, looked up): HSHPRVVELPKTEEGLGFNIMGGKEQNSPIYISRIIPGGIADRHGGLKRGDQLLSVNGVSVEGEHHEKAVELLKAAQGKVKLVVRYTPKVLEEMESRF

The next assay has as its target T11, RAPGEF6, Q8TEU7.
T11 sequence (Q8TEU7 525-625, limits assumed, looked up): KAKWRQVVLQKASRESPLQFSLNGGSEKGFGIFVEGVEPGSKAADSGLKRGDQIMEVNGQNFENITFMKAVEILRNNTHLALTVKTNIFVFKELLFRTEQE

The target of another assay is T12, SHANK1, Q9Y566.
T12 sequence (Q9Y566 658-767, limits assumed, looked up): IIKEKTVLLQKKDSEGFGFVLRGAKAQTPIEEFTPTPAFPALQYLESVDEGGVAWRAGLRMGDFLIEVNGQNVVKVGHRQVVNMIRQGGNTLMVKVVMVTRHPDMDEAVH

The target in another assay is T13, TIAM2, Q8IVF5.
T13 sequence (Q8IVF5 885-986, limits assumed, looked up): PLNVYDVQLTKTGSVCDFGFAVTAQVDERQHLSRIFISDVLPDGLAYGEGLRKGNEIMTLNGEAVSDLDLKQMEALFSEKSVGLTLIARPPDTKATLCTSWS

For another assay, the target named is T14, TJP3_3, O95049.
T14 sequence (O95049 375-456, limits assumed, looked up): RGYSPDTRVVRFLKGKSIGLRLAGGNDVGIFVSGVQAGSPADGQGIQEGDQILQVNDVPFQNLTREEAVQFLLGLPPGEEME

For a further assay, the target named is T15, TX1BP3, O14907.
T15 sequence (O14907 10-122, limits assumed, looked up): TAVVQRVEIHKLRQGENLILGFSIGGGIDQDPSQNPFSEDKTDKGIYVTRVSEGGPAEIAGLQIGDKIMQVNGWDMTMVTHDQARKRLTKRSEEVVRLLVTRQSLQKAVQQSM

[1] abbreviates: modified: phospho on T at position -2 from the C-terminal residue.
Setting [2] is: plain residues with an end cap or a label only (N-terminal biotin on a linker: ado-ado).

DLG1_2, Q12959, sequence (Q12959 314-412): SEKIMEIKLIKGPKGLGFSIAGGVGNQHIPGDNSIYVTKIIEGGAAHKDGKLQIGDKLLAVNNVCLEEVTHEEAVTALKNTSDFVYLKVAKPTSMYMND
NHERF4_4, Q86UT5, sequence (Q86UT5 464-550): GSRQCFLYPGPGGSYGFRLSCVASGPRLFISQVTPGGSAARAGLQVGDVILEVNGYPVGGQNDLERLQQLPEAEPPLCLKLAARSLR
HTRA1, Q92743, sequence (Q92743 360-477): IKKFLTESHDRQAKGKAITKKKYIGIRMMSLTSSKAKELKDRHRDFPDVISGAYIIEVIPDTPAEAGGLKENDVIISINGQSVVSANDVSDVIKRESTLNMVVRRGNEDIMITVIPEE
MAGI2_2, Q86UL8, sequence (Q86UL8 410-522): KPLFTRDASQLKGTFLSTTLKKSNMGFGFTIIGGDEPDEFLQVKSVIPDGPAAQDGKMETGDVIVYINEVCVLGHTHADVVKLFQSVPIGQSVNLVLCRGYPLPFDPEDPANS
MAGI2_3, Q86UL8, sequence (Q86UL8 600-682): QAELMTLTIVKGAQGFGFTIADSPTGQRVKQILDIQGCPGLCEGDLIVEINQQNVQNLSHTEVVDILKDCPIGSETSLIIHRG
PDZRN4_1, Q6ZMN7, sequence (Q6ZMN7 213-318): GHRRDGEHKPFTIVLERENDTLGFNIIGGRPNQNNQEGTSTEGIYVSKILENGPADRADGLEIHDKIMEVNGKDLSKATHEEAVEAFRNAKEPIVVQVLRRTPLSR
LIMK2, P53671, sequence (P53671 143-248): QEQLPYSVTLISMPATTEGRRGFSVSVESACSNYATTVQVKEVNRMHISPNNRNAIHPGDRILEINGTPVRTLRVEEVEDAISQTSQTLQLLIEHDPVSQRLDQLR

B1: HPV16-E6_-2P, P03126 (peptide)
chain: SSRTRRETQL
With B1, the negative logarithm of the Kd (pKd) entry is “below the threshold” with APBA1_1, Q02410 (setting [1]); “below the threshold” in the assay with CARD11, Q9BXL7 (setting [1]); “below the threshold” in the assay with DFNB31_1, Q9P202 (setting [1]); “below the threshold” in the assay with DFNB31_2, Q9P202 (setting [1]); 3.89 with DFNB31_3, Q9P202 (setting [1]); “below the threshold” with DLG1_2, Q12959 (setting [1]). In addition, the negative-log Kd (pKd) entry with DVL3, Q92997 (setting [1]) is given as “below the threshold”; with FRMPD1, Q5SYB0 (setting [1]) it was “below the threshold”; with GRIP1_5, Q9Y3R0 (setting [1]) it was “below the threshold”; with HTRA1, Q92743 (setting [1]), “below the threshold”; with HTRA4, P83105 (setting [1]), “below the threshold”; with LIMK2, P53671 (setting [1]) it was “below the threshold”. For the same molecule, the negative logarithm of the Kd (pKd) in the assay with LIN7C, Q9NUP9 (setting [1]) is 3.94; with MAGI2_2, Q86UL8 (setting [1]) it was “below the threshold”; with MAGI2_3, Q86UL8 (setting [1]) it was “below the threshold”; in the assay with NHERF4_4, Q86UT5 (setting [1]), “below the threshold”; with PDZRN4_1, Q6ZMN7 (setting [1]), “below the threshold”; with RAPGEF6, Q8TEU7 (setting [1]), “below the threshold”. For the same molecule, the pKd entry is “below the threshold” with SHANK1, Q9Y566 (setting [1]); “below the threshold” with TIAM2, Q8IVF5 (setting [1]); “below the threshold” with TJP3_3, O95049 (setting [1]); 3.98 in the assay with TX1BP3, O14907 (setting [1]).

B2: SCN8A, Q9UQD0 (peptide)
chain: RQKEVRESKC
On to B2, for which the negative logarithm of the Kd (pKd) entry in the assay with APBA1_1, Q02410 (setting [2]) is “below the threshold”; with CARD11, Q9BXL7 (setting [2]), “below the threshold”; with DFNB31_1, Q9P202 (setting [2]) it was 4.1; with DFNB31_2, Q9P202 (setting [2]), 4.37; with DFNB31_3, Q9P202 (setting [2]), 3.95; with DLG1_2, Q12959 (setting [2]), 3.55. Further, the pKd entry with DVL3, Q92997 (setting [2]) is reported as “below the threshold”; with FRMPD1, Q5SYB0 (setting [2]), “below the threshold”; in the assay with GRIP1_5, Q9Y3R0 (setting [2]), “below the threshold”; in the assay with HTRA1, Q92743 (setting [2]) it was “below the threshold”; in the assay with HTRA4, P83105 (setting [2]), “below the threshold”; in the assay with LIMK2, P53671 (setting [2]), “below the threshold”. For the same molecule, the pKd with LIN7C, Q9NUP9 (setting [2]) is 3.84; with MAGI2_2, Q86UL8 (setting [2]) it was 4.02; with MAGI2_3, Q86UL8 (setting [2]) it was 3.51; in the assay with NHERF4_4, Q86UT5 (setting [2]), “below the threshold”; with PDZRN4_1, Q6ZMN7 (setting [2]) it was “below the threshold”; in the assay with RAPGEF6, Q8TEU7 (setting [2]) it was “below the threshold”. The negative logarithm of the Kd (pKd) entry was “below the threshold” with SHANK1, Q9Y566 (setting [2]); 4.02 in the assay with TIAM2, Q8IVF5 (setting [2]); “below the threshold” with TJP3_3, O95049 (setting [2]); 3.96 with TX1BP3, O14907 (setting [2]).

B3: GPR12, P47775 (peptide)
chain: AQRARSPSDV
B3: the negative logarithm of the Kd (pKd) entry in the assay with APBA1_1, Q02410 (setting [2]) was “below the threshold”; in the assay with CARD11, Q9BXL7 (setting [2]), “below the threshold”; with DFNB31_1, Q9P202 (setting [2]), “below the threshold”; in the assay with DFNB31_2, Q9P202 (setting [2]), “below the threshold”; in the assay with DFNB31_3, Q9P202 (setting [2]) it was 3.59; with DLG1_2, Q12959 (setting [2]) it was 3.75. Further, the pKd entry is recorded as “below the threshold” with DVL3, Q92997 (setting [2]); “below the threshold” in the assay with FRMPD1, Q5SYB0 (setting [2]); “below the threshold” with GRIP1_5, Q9Y3R0 (setting [2]); “below the threshold” with HTRA1, Q92743 (setting [2]); “below the threshold” in the assay with HTRA4, P83105 (setting [2]); “below the threshold” with LIMK2, P53671 (setting [2]). Moreover, the negative-log Kd (pKd) entry in the assay with LIN7C, Q9NUP9 (setting [2]) was “below the threshold”; in the assay with MAGI2_2, Q86UL8 (setting [2]), 3.65; in the assay with MAGI2_3, Q86UL8 (setting [2]) it was 3.7; with NHERF4_4, Q86UT5 (setting [2]), “below the threshold”; in the assay with PDZRN4_1, Q6ZMN7 (setting [2]), “below the threshold”; with RAPGEF6, Q8TEU7 (setting [2]), “below the threshold”. Also, the negative logarithm of the Kd (pKd) entry was “below the threshold” with SHANK1, Q9Y566 (setting [2]); 4.05 with TIAM2, Q8IVF5 (setting [2]); “below the threshold” with TJP3_3, O95049 (setting [2]); “below the threshold” with TX1BP3, O14907 (setting [2]).

B4: TRPV6, Q9H1D0 (peptide)
chain: EDGESWEYQI
For B4, the pKd result was “below the threshold” with APBA1_1, Q02410 (setting [2]); “below the threshold” in the assay with CARD11, Q9BXL7 (setting [2]); “below the threshold” with DFNB31_1, Q9P202 (setting [2]); “below the threshold” in the assay with DFNB31_2, Q9P202 (setting [2]); 3.6 with DFNB31_3, Q9P202 (setting [2]); “below the threshold” in the assay with DLG1_2, Q12959 (setting [2]). Also, the negative-log Kd (pKd) result was “below the threshold” with DVL3, Q92997 (setting [2]); “below the threshold” in the assay with FRMPD1, Q5SYB0 (setting [2]); “below the threshold” in the assay with GRIP1_5, Q9Y3R0 (setting [2]); 4.45 in the assay with HTRA1, Q92743 (setting [2]); “below the threshold” with HTRA4, P83105 (setting [2]); “below the threshold” with LIMK2, P53671 (setting [2]). The pKd in the assay with LIN7C, Q9NUP9 (setting [2]) is 3.72; in the assay with MAGI2_2, Q86UL8 (setting [2]), “below the threshold”; with MAGI2_3, Q86UL8 (setting [2]), “below the threshold”; with NHERF4_4, Q86UT5 (setting [2]), 3.94; with PDZRN4_1, Q6ZMN7 (setting [2]) it was “below the threshold”; with RAPGEF6, Q8TEU7 (setting [2]), “below the threshold”. The pKd entry was “below the threshold” with SHANK1, Q9Y566 (setting [2]); 3.95 with TIAM2, Q8IVF5 (setting [2]); “below the threshold” with TJP3_3, O95049 (setting [2]); “below the threshold” with TX1BP3, O14907 (setting [2]).

(Values after article PMC9482650, “Quantitative fragmentomics allow affinity mapping of interactomes” (Nature Communications, 2022).)
